Here are results for two molecules from article PMC4821647.

Substitutions are numbered along the chain they refer to.

The target in one data set is T1, Arid5a (Mus musculus, UniProt Q3U108 1-590).
T1 sequence: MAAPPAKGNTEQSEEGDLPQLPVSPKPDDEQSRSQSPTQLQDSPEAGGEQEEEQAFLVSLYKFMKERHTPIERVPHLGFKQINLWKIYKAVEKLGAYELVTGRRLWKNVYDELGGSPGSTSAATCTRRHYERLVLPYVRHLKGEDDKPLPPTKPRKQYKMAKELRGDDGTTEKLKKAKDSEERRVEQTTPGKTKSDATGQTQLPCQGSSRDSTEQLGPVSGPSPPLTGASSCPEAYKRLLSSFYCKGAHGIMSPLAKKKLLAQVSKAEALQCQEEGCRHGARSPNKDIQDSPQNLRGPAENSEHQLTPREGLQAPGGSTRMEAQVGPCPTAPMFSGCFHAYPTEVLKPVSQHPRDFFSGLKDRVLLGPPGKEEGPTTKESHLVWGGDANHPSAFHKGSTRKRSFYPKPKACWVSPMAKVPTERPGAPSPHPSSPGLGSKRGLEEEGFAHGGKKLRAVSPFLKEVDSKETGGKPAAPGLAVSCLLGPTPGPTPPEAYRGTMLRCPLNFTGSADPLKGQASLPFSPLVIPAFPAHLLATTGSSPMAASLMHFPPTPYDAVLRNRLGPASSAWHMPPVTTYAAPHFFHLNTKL
Briefly: EMSA. On the technique in general: Mobility shift assays separate free from complexed probe on a gel.

For the next data set, the target named is T2, Arid5a R128A (Mus musculus, UniProt Q3U108 1-590, R128A).
T2 sequence: T1 sequence with R128A
Briefly: EMSA.

As to UGCACACCCUUGUGUUCUGGCCACUGCA (structured_RNA) [mutant stem-loop STAT3 3'UTR (1738-1765)], in the data set with Arid5a, the binding result is recorded as “no binding”. As for UGCAGUGGCUUGUGUUCUGGCCACUGCA (structured_RNA) [STAT3 3'UTR (1738-1765) stem-loop], the binding result in the data set with Arid5a is given as “binds”; with Arid5a R128A, “no binding”.
